Laboratory results reported in publication PMC2815668, “Pseudo-merohedral twinning and noncrystallographic symmetry in orthorhombic crystals of SIVmac239 Nef core domain bound to different-length TCRζ fragments” (Acta Crystallographica Section D: Biological Crystallography, 2010).

Target: T1, SIVmac239 Nef core domain, GS-Nef (Asp95–Ser235) (simian immunodeficiency virus, isolate …, UniProt P31818 95-235)
T1 construct: source: E. coli BL21 (DE3), purified (Ni-NTA under 8 M urea, dialysis, thrombin cleavage, anion exchange, SEC)
T1 sequence: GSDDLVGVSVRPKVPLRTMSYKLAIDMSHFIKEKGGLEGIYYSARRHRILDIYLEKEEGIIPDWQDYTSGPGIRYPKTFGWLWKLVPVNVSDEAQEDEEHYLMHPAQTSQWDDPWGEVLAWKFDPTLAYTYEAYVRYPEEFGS
Experiment: not stated; unpublished results; stoichiometry of the complex
Conditions: both partners purified

B1: TCRζDP1 (Leu51–Asp93), N-terminal acid-cleavage fragment of the TCRζ cytoplasmic domain (domain or fragment)
chain: LRVKFSRSADAPAYQQGQNQLYNELNLGRREEYDVLDKRRGRD
notes: also called longer TCRζ polypeptide; source: acid cleavage of purified TCRζcyt (30% acetonitrile, 0.5% TFA, 48 h, 323 K), isolated by reverse-phase chromatography
With B1 the “stoichiometry N” value was 1.
